Results on three molecules are retold here after publication PMC10796322, “Molecular switching in transcription through splicing and proline-isomerization regulates stress responses in plants” (Nature Communications, 2024).

Numbering of substitutions follows the chain as printed.

In one experiment the target is T1, RCD1-RST (Arabidopsis thaliana, UniProt Q8RY59).
T1 construct: RCD1-RST
Particulars: cited from earlier work. An excerpt:
However, alternative splicing of DREB2A will shortcut such regulatory fine-tuning of competition by removing the RIM, thereby eliminating RCD1 as a repressor while leaving AD2 available (Fig. 7B). This provides an obvious mechanism for functional switching in a transcriptional pathway.

For the next experiment, the target named is T2, Med25-ACID (Arabidopsis thaliana, UniProt Q7XYY2).
T2 construct: Med25-ACID532-680 (AT1G25540), expressed in E. coli with N-terminal GST tag removed by TEV protease
Particulars: SD. The procedure:
All protein fragments were produced with an N-terminal Glutathione-S-transferase (GST) tag which was removed using Tobacco Etch Virus (TEV) protease and expressed from E.coli BL21 DE3 cells. DREB2A (AT5G05410) variants were expressed at 37 °C for three hours. The DREB2A splice variant (AT5G05410.2) was based on GenBank ID CD530293[21]. Due to stability and aggregation considerations, Med25-ACID (AT1G25540) was expressed with additional N-terminal residues. Expression of Med25-ACID532-680 was induced at high OD (0.8-1.0) and cultured overnight at 18 °C. Cells were resuspended in 20 mM Tris-HCl pH 8.0, 100 mM NaCl lysis buffer and sonicated. The lysate was incubated with glutathione Sepharose for one hour and washed using the lysis buffer. Aliquots of 5 mL resin were resuspended in 20 mL of lysis buffer with 5 mM dithiothreitol (DTT) and 1 mM EDTA and the protein was cleaved overnight at 4 °C using TEV protease. For DREB2A, cleaved protein was freeze-dried and buffer-changed to experimental buffer using size exclusion chromatography. Med25-ACID was further purified using cation exchange (Source 15 S) at pH 8.5 and the buffer was changed using size exclusion chromatography (Superdex S75 10/300 GL). Isotope-labeled proteins were produced by growing the initial culture in lysogenic broth and transferring to half volume M9 minimal media 30 min before induction.
(§1) ITC was performed on either a MicroCal ITC200 or a Malvern Pananalytical PEAQ-ITC. All ITC experiments were performed using a 50 mM HEPES pH 7.4, 100 mM NaCl and 0.5 mM tris(2-carboxyethyl)phosphine (TCEP) buffer. All experiments were performed using a ~ 1:10 cell to syringe protein concentration ratio. For high-affinity DREB2A fragments, the cell concentration was around 15 µM, while lower-affinity interaction experiments used higher concentrations. Samples were degassed by centrifuging at 20,000 x g for 20 minutes at experimental temperature. For three DREB2A fragments, experiments were performed over a range of temperatures to determine the ΔCp. Reported thermodynamic parameters are given at 25 °C. Data were analyzed using Origin and inhouse scripts using the one-set-of-sites model as documented by MicroCal and Origin. Dilution heats were fitted using an offset parameter. Most experiments were performed using a 0.5 µl initial injection, which was discarded in the analysis, followed by 18 injections of 2.0 µl.

For experiment [1], the target named is T3, Med25-ACID R568A (Arabidopsis thaliana, UniProt Q7XYY2, R568A).
T3 construct: Med25-ACID532-680 R568A, N-terminal GST tag removed by TEV protease
The following applies: SD, n = 2. The procedure:
To validate the proposed binding groove, we introduced an alanine in L1, replacing Arg568, which experienced a large CSP upon DREB2A binding, and determined the binding affinity using ITC with the high-affinity ABS-RIM fragment (DREB2A234-276, Fig. 1A). […] Thus, both NMR and thermodynamics supported the importance of the groove for the interaction with DREB2A.
as §1, with “µl. […]” for “µl.”

The target in experiment [2] is T4, Med25-ACID_(532-680), activator interaction domain (ACID) of mediator complex subunit 25 (Arabidopsis thaliana, UniProt Q7XYY2 532-680).
T4 construct: 15N- or 13C,15N-labelled in the NMR titrations; unlabelled in ITC, CEST and stopped-flow; also called AtMed25-ACID; ACID domain; source: E. coli BL21 DE3, purified (glutathione Sepharose, TEV cleavage, cation exchange, SEC); not shown: GST, N-terminal, cleaved
T4 sequence (looked up): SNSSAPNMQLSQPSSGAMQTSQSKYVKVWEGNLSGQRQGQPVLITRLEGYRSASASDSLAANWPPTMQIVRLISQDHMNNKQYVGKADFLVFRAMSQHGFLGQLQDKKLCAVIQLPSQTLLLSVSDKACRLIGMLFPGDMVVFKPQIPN
The experiment is described as follows: CEST NMR; 15N- and 13C-CEST; 500 µM 13C,15N-labeled DREB2A(234-276) or 1 mM DREB2A(234-276,P245A) with about 5% molar ratio of unlabeled Med25-ACID(532-680); pH 6.1, 20 mM phosphate, 100 mM NaCl; 25 °C and 10 °C; isomer Kd values estimated from the bound fractions and the overall ITC affinity. The following applies: both partners purified.

The target of experiment [3] is T5, Med25-ACID_(532-680), activator interaction domain (ACID) of mediator complex subunit 25 (Arabidopsis thaliana, UniProt Q7XYY2 532-680).
T5 chain: T4 sequence (looked up)
Put plainly: cis proline isomer, 10 °C.

Experiment [4] deals with T4, Med25-ACID_(532-680), activator …. Put plainly: ITC; 25 °C; 50 mM HEPES pH 7.4, 100 mM NaCl, 0.5 mM TCEP; ~1:10 cell to syringe concentration ratio, cell around 15 µM for high-affinity fragments; one-set-of-sites model; which protein was in the cell is not stated. Particulars: both partners purified. On the technique in general: ITC needs no label: the signal is the heat of the interaction.

Experiment [5] addresses T6, Med25-ACID R568A (Arabidopsis thaliana, UniProt Q7XYY2 532-680, R568A).
T6 construct: Mediator complex subunit 25 (Med25), Arabidopsis thaliana, AT1G25540, ACID domain construct with Arg568 in loop L1 replaced by alanine; the only Med25-ACID construct described is 532-680; source: E. coli BL21 DE3, purified (glutathione Sepharose, TEV cleavage, cation exchange, SEC); not shown: GST, N-terminal, cleaved
T6 sequence (looked up): T4 sequence (looked up) with R37A
The experiment is described as above. The following applies: both partners purified.

The target in experiment [6] is T5, Med25-ACID_(532-680), activator …. Put plainly: NMR; trans proline isomer, 10 °C.
Experiment [7] deals with T4, Med25-ACID_(532-680), activator …. The experiment is described as follows: ITC; 25 °C; 50 mM HEPES pH 7.4, 100 mM NaCl, 0.5 mM TCEP; ~1:10 cell to syringe concentration ratio, cell around 15 µM for high-affinity fragments; one-set-of-sites model; which protein was in the cell is not stated. The following applies: both partners purified. This is another data set of the same source.

Experiment [8] deals with T5, Med25-ACID_(532-680), activator …. Put plainly: NMR; cis proline isomer, 10 °C.
Experiment [9] has the same target. The experiment is described as follows: trans proline isomer, 10 °C.

T1 sequence (Q8RY59 499-572): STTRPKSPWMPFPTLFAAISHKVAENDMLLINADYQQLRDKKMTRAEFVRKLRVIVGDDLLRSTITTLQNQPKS
T3 sequence (Q7XYY2 532-680 R568A): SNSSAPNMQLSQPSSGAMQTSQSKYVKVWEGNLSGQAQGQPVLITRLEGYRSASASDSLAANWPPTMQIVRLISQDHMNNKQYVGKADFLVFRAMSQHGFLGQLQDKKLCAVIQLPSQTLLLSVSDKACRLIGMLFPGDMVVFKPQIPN

In general, Kd refers to the concentration at which binding is half-saturated. For the molecule DREB2A (fragment borders not printed), the Kd on RCD1-RST was 12 nM.
Take DREB2A195-276 [195–276]: the values for the Kd on Med25-ACID and on Med25-ACID R568A [1] were 450 ± 30 nM and 3100 nM, respectively.

B1: DREB2A_(234-276) (ABS-RIM) (domain or fragment, Arabidopsis thaliana, UniProt O82132 234-276, looked up)
chain: QDSLSVADYGWPNDVDQSHLDSSDMFDVDELLRDLNGDDVFAG
notes: 13C,15N-labelled in the CEST experiments; Populates cis (30 ± 1%) and trans Trp244-Pro245 isomers in the free state; also called bivalent ABS-RIM fragment; source: E. coli BL21 DE3, purified (glutathione Sepharose, TEV cleavage, SEC); not shown: GST, N-terminal, cleaved
By koff is commonly meant a measure of how fast the partners let go of each other. Lower therefore signals slow dissociation. In general, stoichiometry N refers to the number of molecules, sites or subunits per partner or assembly. With B1, the “KD of the cis-Pro245 isomer (estimated from CEST bound fractions and the ITC affinity)” value in [2] is 330 ± 20 nM. The “KD of the trans-Pro245 isomer (estimated from CEST bound fractions and the ITC affinity)” value in [2] was 640 ± 30 nM. The koff turned out to be 6 s⁻¹ in [3] and 24 s⁻¹ in experiment [9]. Further, the Kd was determined as 510 nM in [4]; 3100 ± 700 nM in the experiment with Med25-ACID R568A [5]; 190 nM in [6]; 520 ± 20 nM in experiment [7]; 110 nM in experiment [8]. Also, the results for the dH (in experiment [4]; with Med25-ACID R568A [5]) were -12.1 kcal/mol and -11 ± 0.956 kcal/mol, respectively. For the same molecule, the results for the “stoichiometry N” value (in experiment [4]; with Med25-ACID R568A [5]) were 0.98 and 0.9 ± 0.01, respectively.
